This note sets out measurements from patent publication US9150647 (KANCERA, dated 2015).

Experiment [1] concerns the target human Ror1 (receptor tyrosine kinase ROR1, 937 amino acids, 105 kDa) (human) (UniProt Q01973). Kind of experiment: flow cytometry, surface staining of cells of patient CLL-1. Background: In flow cytometry, cells or beads pass a laser one at a time.
The target is the same in experiment [2]. The experiment in a line: flow cytometry, surface staining of cells of patient CLL-2.
The target is the same in experiment [3]. The experiment in a line: flow cytometry, surface staining of cells of patient CLL-3.
For experiment [4] the target is unchanged. The experiment in a line: flow cytometry, surface staining of cells of patient CLL-4.
For experiment [5] the target is unchanged. The experiment in a line: flow cytometry, surface staining of cells of patient CLL-5.
Experiment [6] has the same target. The experiment in a line: flow cytometry, surface staining of cells of patient CLL-6.
For experiment [7] the target is unchanged. Kind of experiment: flow cytometry, surface staining of cells of patient CLL-7.
For experiment [8] the target is unchanged. The experiment in a line: flow cytometry, surface staining of cells of patient CLL-8.
The target is the same in experiment [9]. The experiment in a line: flow cytometry, surface staining of cells of patient CLL-9.
Experiment [10] shares this target. Kind of experiment: flow cytometry, surface staining of cells of patient CLL-10.
The target is the same in experiment [11]. The experiment in a line: flow cytometry, surface staining of cells of patient CLL-11.
For experiment [12] the target is unchanged. Kind of experiment: flow cytometry, surface staining of cells of patient CLL-12.
Experiment [13] has the same target. The experiment in a line: flow cytometry, surface staining of cells of patient CLL-13.
The target is the same in experiment [14]. The experiment in a line: flow cytometry, surface staining of cells of patient CLL-14.
Experiment [15] has the same target. Kind of experiment: flow cytometry, surface staining of cells of patient CLL-15.
The target is the same in experiment [16]. The experiment in a line: flow cytometry, surface staining of cells of patient CLL-16.
For experiment [17] the target is unchanged. The experiment in a line: flow cytometry, surface staining of cells of patient CLL-17.
Experiment [18] has the same target. Kind of experiment: flow cytometry, surface staining of cells of patient CLL-18.
Experiment [19] has the same target. The experiment in a line: flow cytometry, surface staining of CD19+ cells of patient CLL-1.
For experiment [20] the target is unchanged. Kind of experiment: flow cytometry, surface staining of CD19+ cells of patient CLL-2.
Experiment [21] shares this target. Kind of experiment: flow cytometry, surface staining of CD19+ cells of patient CLL-3.
Experiment [22] has the same target. The experiment in a line: flow cytometry, surface staining of CD19+ cells of patient CLL-4.
Experiment [23] shares this target. The experiment in a line: flow cytometry, surface staining of CD19+ cells of patient CLL-5.
The target is the same in experiment [24]. The experiment in a line: flow cytometry, surface staining of CD19+ cells of patient CLL-6.
The target is the same in experiment [25]. Kind of experiment: flow cytometry, surface staining of CD19+ cells of patient CLL-7.
Experiment [26] shares this target. Kind of experiment: flow cytometry, surface staining of CD19+ cells of patient CLL-8.
Experiment [27] shares this target. The experiment in a line: flow cytometry, surface staining of CD19+ cells of patient CLL-9.
The target is the same in experiment [28]. The experiment in a line: flow cytometry, surface staining of CD19+ cells of patient CLL-10.
The target is the same in experiment [29]. Kind of experiment: flow cytometry, surface staining of CD19+ cells of patient CLL-11.
For experiment [30] the target is unchanged. Kind of experiment: flow cytometry, surface staining of CD19+ cells of patient CLL-12.
Experiment [31] shares this target. The experiment in a line: flow cytometry, surface staining of CD19+ cells of patient CLL-13.
Experiment [32] has the same target. The experiment in a line: flow cytometry, surface staining of CD19+ cells of patient CLL-14.
Experiment [33] has the same target. Kind of experiment: flow cytometry, surface staining of CD19+ cells of patient CLL-15.
For experiment [34] the target is unchanged. Kind of experiment: flow cytometry, surface staining of CD19+ cells of patient CLL-16.
The target is the same in experiment [35]. The experiment in a line: flow cytometry, surface staining of CD19+ cells of patient CLL-17.
The target is the same in experiment [36]. Kind of experiment: flow cytometry, surface staining of CD19+ cells of patient CLL-18.
Experiment [37] concerns the target T1, human Ror1 (receptor tyrosine kinase ROR1, 937 amino acids, 105 kDa) (human, UniProt Q01973 30-937).
T1 construct: whole, on cells; Endogenous Ror1 of primary CLL cells; the same entry is used for surface staining and for the 105 kDa band in Western blots of cell lysates; also called Ror1 protein
Kind of experiment: flow cytometry, surface staining of CLL cells.

Sequence of human Ror1 (receptor tyrosine kinase ROR1, 937 amino acids, 105 kDa) (human) (Q01973 30-937): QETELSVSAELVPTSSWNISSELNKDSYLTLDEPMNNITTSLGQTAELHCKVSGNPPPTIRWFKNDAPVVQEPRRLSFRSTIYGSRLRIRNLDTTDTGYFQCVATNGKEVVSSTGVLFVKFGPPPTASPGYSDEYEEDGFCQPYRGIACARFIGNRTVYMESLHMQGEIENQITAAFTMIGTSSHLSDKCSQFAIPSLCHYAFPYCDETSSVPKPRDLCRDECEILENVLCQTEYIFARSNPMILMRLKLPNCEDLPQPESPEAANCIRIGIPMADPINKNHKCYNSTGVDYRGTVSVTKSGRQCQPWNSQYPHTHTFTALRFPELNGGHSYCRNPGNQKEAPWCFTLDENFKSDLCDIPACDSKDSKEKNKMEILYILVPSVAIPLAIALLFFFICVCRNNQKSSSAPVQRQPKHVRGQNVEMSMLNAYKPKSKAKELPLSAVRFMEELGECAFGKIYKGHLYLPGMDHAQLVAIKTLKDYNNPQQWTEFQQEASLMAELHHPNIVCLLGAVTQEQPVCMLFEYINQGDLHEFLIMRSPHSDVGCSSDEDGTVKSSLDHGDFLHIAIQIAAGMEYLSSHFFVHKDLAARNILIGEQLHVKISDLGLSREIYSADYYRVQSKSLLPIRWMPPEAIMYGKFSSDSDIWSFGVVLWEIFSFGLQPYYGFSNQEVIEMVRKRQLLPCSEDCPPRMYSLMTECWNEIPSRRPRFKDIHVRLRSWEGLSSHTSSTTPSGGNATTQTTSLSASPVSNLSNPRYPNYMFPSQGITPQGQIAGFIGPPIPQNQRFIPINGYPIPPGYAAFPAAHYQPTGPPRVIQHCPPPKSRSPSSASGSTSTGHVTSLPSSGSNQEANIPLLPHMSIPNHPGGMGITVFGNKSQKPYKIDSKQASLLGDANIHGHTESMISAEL
T1 sequence (Q01973 30-937): as above

Turning to “goat anti-Ror1 polyclonal antibody (N-Ror1com) (R&D systems)”, the Ror1 MFI in [1] turned out to be 13; in experiment [2], 25; in experiment [3] it was 10; in experiment [4] it was 20; in experiment [5], 26; in experiment [6], 35. Further, the Ror1 MFI was 14 in experiment [7]; 20 in experiment [8]; 20 in experiment [9]; 10 in experiment [10]; 11 in [11]; 15 in [12]. Besides, the Ror1 MFI in experiment [13] was 14; in [14] it was 45; in [15], 19; in experiment [16], 18; in experiment [17], 20; in experiment [18] it was 33. For the same molecule, the Freq. (%) of Ror1+ CLL cells (CD19+) in experiment [19] is 80%; in experiment [20], 91%; in [21], 36%; in [22], 86%; in experiment [23] it was 80%; in [24] it was 91%. The Freq. (%) of Ror1+ CLL cells (CD19+) in experiment [25] came out at 37%; in [26], 50%; in [27], 69%; in [28], 63%; in experiment [29] it was 65%; in [30], 81%. Further, the Freq. (%) of Ror1+ CLL cells (CD19+) in experiment [31] was found to be 84%; in experiment [32], 92%; in experiment [33], 61%; in [34], 36%; in experiment [35], 79%; in experiment [36], 93%.

B1: Anti-Ror1 CRD16 (clone 1C11) antibody (antibody, V domains shown)
VH: EVKLQESGAELARPGASVKMSCKASGYTFTSYTMHWVKQRPGQGLEWIGYINPSSGYTEYNQKFKDKTTLTADKSSSTAYMQLSSLTSGDSAVYYCARRVLWLRRGDYWGQGTILTVSA
VL: EVLITQTPSSLSASLGERVSLTCRASQDIGSSLNWLQQEPDGTIKRLIYATSSLDSGVPKRFSGSRSGSDYSLTISSLESEDFVDYYCLQYASSPYTFGGGTKLELK
notes: Mouse monoclonal antibody; also called Ror CRD (IgM)
As to B1, in experiment [37], the binding result was “binds”.

B2: Anti-Ror1 Ig24 (clone 2A4) antibody (antibody, IgM, V domains shown)
VH: EVKLQQSGPELVKPGASVKISCKTSGYTFTEYTMHWVKQSHGKSLEWIGGINPNNGGTSYNQKFKGKATLTVDKSSSTAYMELRSLTSEDSAVYYCALQGFAYWGQGTPLTVSS
VL: EIEITQTPALMSASPGEKVTMTCSASSSVSYMYWYQQKPRSSPKPWIYLTSNLASGVPARFSGSGSGTSYSLTISSMEAEDAATYYCQQWSSNPYTFGGGTRLELK
notes: Mouse monoclonal antibody; also called Ror Ig24 (IgM)
Regarding B2, in [37], the binding result is reported as “binds”.
